The results in this text go back to patent US20150258192A1, “COMPOSITIONS AND METHODS FOR PREVENTING OR TREATING CHRONIC LUNG ALLOGRAFT DYSFUNCTION (CLAD) AND IDIOPATHIC PULMONARY FIBROSIS (IPF)” (priority 2014, published 2015).

In the assay the target is MAPKAP-K2(h) (human) (UniProt P49137). Description: cell-based or functional assay.

Consider MMI-0100 ([…]; SEQ ID NO: 1) (peptide), for which the IC50 (radiometric kinase activity assay) turned out to be 22 µM.
